Paper PMC10703879, “Antigen-induced chimeric antigen receptor multimerization amplifies on-tumor cytotoxicity” (Signal Transduction and Targeted Therapy, 2023)

B1: Nb2 (anti-BCMA nanobody 2 of the cilta-cel CAR) (VHH)
VHH: EVQLVESGGGLVQAGGSLRLSCAASGRTFTMGWFRQAPGKEREFVAAISLSPTLAYYAESVKGRFTISRDNAKNTVVLQMNSLKPEDTALYYCAADRKSVMSIRPDYWGQGTQVTVSS
notes: VHH from a phage display library of llamas immunized with BCMA; calculated Mw 13.6 kDa; source: provided by GenScript
B2: Nb1 (anti-BCMA nanobody 1 of the cilta-cel CAR) (VHH)
VHH: QVKLEESGGGLVQAGRSLRLSCAASEHTFSSHVMGWFRQAPGKERESVAVIGWRDISTSYADSVKGRFTISRDNAKKTLYLQMNSLKPEDTAVYYCAARRIDAADFDSWGQGTQVTVSS
notes: VHH from a phage display library of llamas immunized with BCMA; calculated Mw 13.9 kDa; source: provided by GenScript

Assays:
Conditions in all cases: both partners purified
[1] = target: T1, BCMAECD (synthesized extracellular domain of human B-cell maturation antigen, residues 1-54) (human, UniProt Q02223-1); test: SEC; nanobody-BCMAECD complexes (mixed 1:4, overnight at 4 °C, Superdex 75)
T1 construct: B-cell maturation antigen (BCMA), human, extracellular domain, residues 1-54 of UniProt Q02223-1; synthesized, without glycosylation; calculated Mw 5.9 kDa; also called BCMA extracellular domain; BCMA ectodomain; source: synthetic peptide (GL Biochem, Shanghai)

[2] = target: T1, BCMAECD (synthesized extracellular …); test: AUC; sedimentation velocity; complexes formed by mixing nanobody with excess BCMAECD (molar ratio 1:4, overnight at 4 °C); 1 mg/ml, 45,000 rpm, 20 mM Tris pH 8.0, 100 mM NaCl, 4 °C
[3] = target: T2, BCMAECD-Fc (dimerized, Fc-tagged human BCMA extracellular domain) (human, UniProt Q02223-1); test: SPR; Biacore 8K, 25 °C, 10 mM HEPES pH 7.4, 150 mM NaCl, 0.05% Tween 20; BCMAECD-Fc immobilised by amine coupling on CM5; nanobodies as analytes (five two-fold dilutions); Langmuir model for Nb1 and Nb2, heterogeneous ligand model for NbT
T2 construct: B-cell maturation antigen (BCMA), human, extracellular domain; also called Fc-tagged human BCMAECD

[4] = target: T3, BCMAECD-His (monomeric, His-tagged human BCMA extracellular domain) (Homo sapiens, UniProt Q02223-1); test: SPR; Biacore 8K, 25 °C, 10 mM HEPES pH 7.4, 150 mM NaCl, 0.05% Tween 20; BCMAECD-His immobilised by amine coupling on CM5; nanobodies as analytes (five two-fold dilutions); Langmuir model for Nb1 and Nb2, heterogeneous ligand model for NbT
T3 construct: B-cell maturation antigen (BCMA), human, extracellular domain; also called His-tagged human BCMAECD
T3 sequence (Q02223 1-54): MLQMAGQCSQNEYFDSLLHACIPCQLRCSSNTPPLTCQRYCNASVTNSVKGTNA

T1 sequence (Q02223 1-54): as above
T2 sequence (Q02223 1-54): as above

Row | Binder | stoichiometry N [1] | stoichiometry N [2] | Kd [3] [nM] | Kd [4] [nM]
1 | B1 | ~1 Nb2 per BCMAECD (printed 1:1) | 1 Nb2 per BCMAECD (printed 1:1) | 3.7 | 4.2
2 | B2 | ~1 Nb1 per BCMAECD (printed 2:2) | 1 Nb1 per BCMAECD (printed 2:2) | 0.67 | 3.9
